The source of these data is PMC3866087, “Heat Shock Transcription Factor σ^32 Co-opts the Signal Recognition Particle to Regulate Protein Homeostasis in E. coli” (PLoS Biology, 2013).

In this assay the target is T1, purified SecA (E. coli, UniProt P10408 1-901).
T1 construct: SecA, ATP-fueled motor protein of the Sec translocon of E. coli, purified; source: purified essentially as described [82]
Briefly: far-Western, overlay or dot blot; purified FtsY, Ffh, SecA or Ffh partially digested by Glu-C (V8) resolved on 10% SDS-PAGE, transferred to nitrocellulose, re-natured, incubated with purified WTσ^32, probed with polyclonal anti-σ^32. To be noted: both partners purified.

T1 sequence (P10408 whole entry): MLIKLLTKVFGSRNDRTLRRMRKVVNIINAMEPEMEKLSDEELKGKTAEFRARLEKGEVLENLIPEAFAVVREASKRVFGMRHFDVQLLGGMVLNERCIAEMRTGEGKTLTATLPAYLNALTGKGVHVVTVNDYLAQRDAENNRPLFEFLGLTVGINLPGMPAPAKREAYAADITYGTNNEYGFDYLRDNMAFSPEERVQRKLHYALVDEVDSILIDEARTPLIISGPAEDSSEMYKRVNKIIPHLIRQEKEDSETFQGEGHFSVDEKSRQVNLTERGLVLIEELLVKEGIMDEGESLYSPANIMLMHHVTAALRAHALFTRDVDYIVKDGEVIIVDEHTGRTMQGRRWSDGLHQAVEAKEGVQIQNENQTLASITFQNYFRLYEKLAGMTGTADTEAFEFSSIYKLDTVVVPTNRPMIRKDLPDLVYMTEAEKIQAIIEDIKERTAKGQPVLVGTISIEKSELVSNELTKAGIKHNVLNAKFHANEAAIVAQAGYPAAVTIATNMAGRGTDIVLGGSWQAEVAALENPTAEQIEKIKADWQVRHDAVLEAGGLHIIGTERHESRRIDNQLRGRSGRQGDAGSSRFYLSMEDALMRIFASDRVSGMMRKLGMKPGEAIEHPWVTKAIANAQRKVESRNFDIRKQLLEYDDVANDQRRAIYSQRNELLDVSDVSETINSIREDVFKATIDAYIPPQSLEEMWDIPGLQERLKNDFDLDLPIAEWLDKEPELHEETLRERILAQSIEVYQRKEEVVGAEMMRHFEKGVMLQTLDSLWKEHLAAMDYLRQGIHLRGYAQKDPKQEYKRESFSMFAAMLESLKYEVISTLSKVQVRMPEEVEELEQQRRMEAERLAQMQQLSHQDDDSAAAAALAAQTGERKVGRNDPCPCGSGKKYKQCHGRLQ

B1: purified WTσ^32 (natural protein, E. coli, UniProt P0AGB3 1-284, looked up)
chain: MTDKMQSLALAPVGNLDSYIRAANAWPMLSADEERALAEKLHYHGDLEAAKTLILSHLRFVVHIARNYAGYGLPQADLIQEGNIGLMKAVRRFNPEVGVRLVSFAVHWIKAEIHEYVLRNWRIVKVATTKAQRKLFFNLRKTKQRLGWFNQDEVEMVARELGVTSKDVREMESRMAAQDMTFDLSSDDDSDSQPMAPVLYLQDKSSNFADGIEDDNWEEQAANRLTDAMQGLDERSQDIIRARWLDEDNKSTLQELADRYGVSAERVRQLEKNAMKKLRAAIEA
notes: RNA polymerase sigma factor σ^32 (RpoH) of E. coli, wild type, purified; called full-length in the discussion; The methods list 6×H-tagged, Strep-6×H-tagged and untagged σ^32; also called full-length σ^32; source: purified essentially as described [80]; chaperones removed with a wash of ATP, MgCl2 and two peptides
With B1, the binding result is “binds”.
